Results: patent publication US6660841

Target: Gal4-DBD/CREM (UniProt P04386)
Experiment: cell-based or functional assay

activity in yeast (β-galactosidase reporter), compared with ACT (fold (against ACT)): 2
Substance: ACT/Gal4-AD (from UniProt Q9WTX7 1-284)
